“Also recorded” adds a separate entry of the source. Where no end group is shown, it is not given here. [ ]: non-standard residue; d: D form. Sec = N[C@@H](C[SeH])C(=O)O

Consider 4 molecules from patent US7704951B2, “Method for ameliorating dyskinesia” (Juridical Foundation the Chemo-Sero-Therapeutic Research …, priority 2001, dated 2010).

The conditions of series [1]: cited from earlier work.
The test system of another series is Dami cells. As to the kind of experiment: Cytotoxicity-inhibitory (cell death-inhibitory) activity assay using Dami cells. Particulars: for cytotoxicity-inhibitory activity: Dami cells, fatty acid-containing assay medium, 4 to 5 days, survival of the cells. The class given is cell-based. As for the experimental part: Using Dami cells (described in Greenberg S. M. et al., Blood, vol. 72, p. 1968-1977 (1988)) for use in assay system for cytotoxicity-inhibitory activity, the cells were washed twice with assay medium (50% PBS/SA/0.03% HSA (manufactured by SIGMA) or SA/0.05% BSA free from fatty acid (WAKO)/4 μM long-chain polyvalent fatty acid (e.g. arachidonic acid, linoleic acid or linolenic acid)) and suspended in the same medium at 3×10^4 cells/ml. The cell suspension was added to a 96-well plate in each 200 μl for wells for sample addition or in each 100 μl for wells for serial dilution. To the wells for sample addition was added each 2 μl assay sample containing either selenoprotein P fragment prepared in Preparation 1, selenocystine, selenomethionine, Ebselen, or sodium selenite at the same concentration. After stirring, a serial dilution was made with the wells containing 100 μl cell suspension. The plate was incubated at 37° C. in CO2 incubator for 4 to 5 days followed by assessment of survival of the cells.

Another series deals with gerbil mice. Briefly: Cerebral ischemia/reperfusion injury model (blocking both carotid arteries), degree of paralysis. The following applies: 1 mg/animal i.v., vs control. The class given is in vivo. As for the experimental part: Effect of selenoprotein P on dyskinesia induced by cerebral ischemia/reperfusion injury was assessed with a degree of paralysis using gerbil mice of 12 weeks old. […] […] A degree of paralysis was assessed after 6 and 24 hours.

The next series relates to EAE mice (SJL/JOrIICrj). Briefly: Experimental allergic encephalomyelitis (EAE) in mice, degree of paralysis. The class given is in vivo, mouse. Particulars: 0.5 mg/head daily i.p. Day 8 to Day 13. The method, then: For investigating the effect of selenoprotein P on dyskinesia induced by immunopathy based on a degree of paralysis, an experiment was performed wherein selenoprotein P was administered to EAE mice. Female SJL/JOrIICrj of 14 weeks old (Charles River Japan, Inc.) was used as a test animal. Myelin proteolipid protein (PLP) synthetic peptide 139-151 (amino acid sequence: His Ser Leu Gly Lys Trp Leu Gly His Pro Asp Lys Phe (SEQ ID NO: 6); […]) as an immunogen was intradermally administered to the mice together with Freund complete adjuvant H37Ra ([…]) and pertussis toxin (manufactured by List Biological Laboratory; 200 ng/mouse) at two portions at the neck of tail.
Thirteen mice each in two groups received daily 0.5 mg/head of selenoprotein P via intraperitoneal administration from the day (Day 8) previous to onset of the disease till Day 13. A control group received saline via intraperitoneal administration.

The next series deals with hNT cells. As to the kind of experiment: Survival and protrusion formation in cultured human neurocytes. The class given is cell-based. The method, then:
NT2 (Ntera2/D1) (Pleasure, S. J. and Lee, V. M., 1993, J. Neurosci. Res. 35: 585-602) is a progenitor neurocyte derived from human teratocarcinoma and can be differentiated with retinoic acid into hNT neurocytes having the properties of the nerve in the central nervous system (Trojanowski, J. Q. et al., 1993 Exp. Neurol. 122: 283-294). Effect of selenoprotein P on protrusion formation in the hNT cells was investigated.
Both NT2 and hNT cells can be cultured in CO2 incubator at 37° C. The hNT cells were prepared as follows: NT2 cells, being capable of passage culture in 10% FCS/D-MEM/F-12 medium, were first plated at 2.5×10^5 cells/ml. After 24 hours, the culture medium was replaced with D-MEM/F-12 containing 10 μM all-trans retinoic acid to initiate induction. The culture was subsequently continued for six weeks while replacing with the same medium every three days to differentiate NT2 cells into hNT cells. All the differentiated cells were recovered and expanded by 3-folds by passage culture with 10% FCS/D-MEM/F-12 medium. After 48 hours, the cells were plated at 3 to 4×10^6 cells/ml. After 48-hour culture, the culture medium was replaced with 5% FCS/D-MEM/F-12 plus mitotic inhibitor (10 μM Fluorodeoxyuridine, Uridine, 1 μM cytosine arabinoside) and culture was continued for ten days while replacing with the same medium every three days. Subsequently, the culture was treated with trypsin for a short time period and then lightly tapped to release the hNT cells which were recovered. The recovered cells were suspended in a mixed medium of an equal amount of NT2 culture supernatant (10% FCS/D-MEM/F-12 medium) and a fresh 10% FCS/D-MEM/F-12 medium. The suspension was plated on Laminin coating plate to maintain the cells. The hNT cells thus obtained were used in the following experiment.
The hNT cells were recovered by trypsin treatment, washed with a basal medium of RPMI 1640/D-MEM/F-12 (1:2:2), suspended in the same basal medium and cultured in 96-well plate at 3000 cells/well. On Day 5 to Day 7, the cells died completely.

The nature of series [2]: Toxicity of selenium compounds (cell culture). The following applies: in spite of 9 to 10 selenocysteines. From the text: Selenium per se, as involved in the present invention, is one of essential trace elements and it is known that deficiency thereof induces a serious deficiency disease accompanied by, for instance, cardiomyopathy. […] Acute toxic symptoms of selenium include, for example, pale face, neurological symptoms, dermatitis, and gastrointestinal disorders.

`N[C@@H](C[Se][Se]C[C@H](N)C(=O)O)C(=O)O` [selenocystine]: the “toxicity when added alone to cell culture” value in series [1] was “fairly strong toxicity”.

Consider “KRCINQLLCKLPTDSELAPRS (cysteine pairing not given here) [SEQ ID NO: 5, selenoprotein P-derived peptide with no selenocysteine, reference compound]”, for which the cytotoxicity-inhibitory activity entry in the series on Dami cells was “exhibit no cytotoxicity-inhibitory activity”.

Turning to “Lys Arg Cys Ile Asn Gln Leu Leu Cys Lys Leu Pro Thr Asp Ser Glu Leu Ala Pro Arg Ser Xaa Cys Cys His Cys Arg His Leu Ile Phe Glu Lys (KRCINQLLCKLPTDSELAPRS[Sec]CCHCRHLIFEK; cysteine pairing not given here; listed as Homo sapiens) [SEQ ID NO: 4, peptide purified from selenoprotein P fragments under reduced condition; Xaa = selenocysteine]”, in the series on Dami cells, the cytotoxicity-inhibitory activity entry is reported as “exhibit cytotoxicity-inhibitory activity”.

B1: selenoprotein P (protein, UniProt P49908 20-381, looked up)
Selenoprotein P: ESQDQSSLCKQPPAWSIRDQDPMLNSNGSVTVVALLQASUYLCILQASKLEDLRVKLKKEGYSNISYIVVNHQGISSRLKYTHLKNKVSEHIPVYQQEENQTDVWTLLNGSKDDFLIYDRCGRLVYHLGLPFSFLTFPYVEEAIKIAYCEKKCGNCSLTTLKDEDFCKRVSLATVDKTVETPSPHYHHEHHHNHGHQHLGSSELSENQQPGAPNAPTHPAPPGLHHHHKHKGQHRQGHPENRDMPASEDLQDLQKKLCRKRCINQLLCKLPTDSELAPRSUCCHCRHLIFEKTGSAITUQCKENLPSLCSUQGLRAEENITESCQURLPPAAUQISQQLIPTEASASURUKNQAKKUEUPSN
B1: the “cell death-inhibitory activity per proteins” value in the series with Dami cells (full-length protein compared with fragment fraction from Preparation 1) is recorded as “much lower than that of the fragment”. The “degree of paralysis (score, Table 1)” value is given as “apparently exhibited better conditions” with gerbil mice (30 minutes ischemia model, after 6 and 24 hours); “no significant difference” with gerbil mice (45 minutes ischemia model, after 6 hours); “much difference” with gerbil mice (45 minutes ischemia model, after 24 hours). Further, in the series with EAE mice (SJL/JOrIICrj), the “onset of the disease” value is on record as “onset of the disease was inhibited”. The “severity of the disease (paralysis score, Table 2)” value in the series with EAE mice (SJL/JOrIICrj) was “severity of the disease was lowered”. Further, the “survival time of hNT cells” value with hNT cells (100 ng/ml, basal medium) is recorded as “more than two weeks”. The “cell death of hNT cells” value in the series on hNT cells (100 ng/ml, basal medium RPMI 1640/D-MEM/F-12, without addition cells died completely on Day 5 to Day 7) is “completely inhibited”. Moreover, in the series with hNT cells (hNT cells, observed on Day 4, FIG. 3), the “protrusion formation (cellular morphology)” value was “protrusion formation was observed; also recorded: protrusion was formed”. The toxicity entry in series [2] is listed as “no strong toxicity”.
